Source: US11471538B2, “Methods and pharmaceutical compositions for the treatment of cancers associated with activation of the MAPK pathway” (INSERM (Institut National de la Santé et de la Recherche …, priority 2017, dated 2022)

Tests used:
SLITRK6 mRNA = SLITRK6 mRNA expression by Q-PCR in BRAF-mutant melanoma cells under MAPK inhibitor treatment; format: cell-based; conditions: PLX4032 1 μM alone or with AZD6244 0.1 μM; A375, Lu1205, WM266-4, WM983B, WM35, WM115 cells; 72 h for WM35 and WM115
Protocol: FIG. 1. SLITRK6 mRNA expression is induced under MAPK inhibitor treatment in BRAF-mutant melanoma cells. A) A375, Lu1205, WM266-4 and WM983B cell lines were treated with a BRAF inhibitor (PLX4032) at 1 μM alone or in combination with a 0.1 μM MEK inhibitor (AZD6244). mRNA fold increase relative to the DMSO control is determined by Q-PCR. The results are presented as the mean±SD of the average of 3 independent experiments. *** p<0.001; T-test. B) BRAF-mutant melanoma cells lines WM35 and WM115 were treated with a BRAF inhibitor (PLX4032, 1 μM) alone or in combination with a MEK inhibitor (AZD6244, 0.1 μM) for 72 h and SLITRK6 mRNA was analyzed by RT-qPCR. Data shown are the means±standard deviation of 3 independent experiments. ** p<0.01; * p<0.05; t-test.

SLITRK6 [1] = test: Staining of A375 cells for SLITRK6: antibody internalization; format: cell-based; conditions: si-Ctl or si-SLITRK6, PLX4032 1 μM alone or with AZD6244 0.1 μM for 48 h
Protocol: FIG. 6. […] A375 cells were transfected with siRNA control (si-Ctl) or targeting SLITRK6 (si-SLITRK6) before treatment with PLX4032 (1 μM) alone or in combination with AZD6244 (0.1 μM) for 48 h. Cells were then stained for SLITRK6 (green) and DNA was counterstained with DAPI (blue).

SLITRK6 [2] = test: Staining of A375 cells for SLITRK6: antibody binding at the membrane; conditions: si-Ctl or si-SLITRK6, PLX4032 1 μM alone or with AZD6244 0.1 μM for 48 h
Protocol: FIG. 5. […] A375 cells were transfected with siRNA control (si-Ctl) or targeting SLITRK6 (si-SLITRK6) before treatment with PLX4032 (1 μM) alone or in combination with AZD6244 (0.1 μM) for 48 h. Cells were then stained for SLITRK6 (green) and DNA was counterstained with DAPI (blue).

[3] = listed as antibody against SLITRK6

Row | Molecule | SLITRK6 mRNA expression (fold increase relative to the DMSO control) (SLITRK6 mRNA) | internalization of the antibody and its target (SLITRK6 [1]) | internalization of the antibody and its target (SLITRK6 [1]; [3]) | binding of the antibody to SLITRK6 at the cell membrane (SLITRK6 [2]) | binding of the antibody to SLITRK6 at the cell membrane (SLITRK6 [2]; [3])
1 | CCCS(=O)(=O)Nc1ccc(F)c(C(=O)c2c[nH]c3ncc(-c4ccc(Cl)cc4)cc23)c1F [PLX4032] | induced |  |  |  | 
2 | Hal5-10acl2: antibody directed against SLITRK6, produced by CHO cell ATCC PTA-13102; VH SEQ ID NO: 1, VL SEQ ID NO: 2 (antibody, V domains shown, Synthetic heavy chain variable region of Hal5-10acl2; Synthetic light chain variable region of Hal5-10acl2) VH: QVQLVESGGGVVQPGRSLRLSCAASGFTFSSYGMHWVRQAPGKGLEWVAVIWYDGSNQYYADSVKGRFTISRDNSKNTLFLQMHSLRAEDTAVYYCARGLTSGRYGMDVWGQGTTVTVSS VL: DIVMTQSPLSLPVTPGEPASISCRSSQSLLLSHGFNYLDWYLQKPGQSPQLLIYLGSSRASGVPDRFSGSGSGTDFTLKISRVEAEDVGLYYCMQPLQIPWTFGQGTKVEIKR |  | internalizes the tumor cells only after a treatment with a MAPK inhibitor | internalizes its target specifically only after MAPKi treatment | binds to melanoma cells only when the cells are treated with a MAMPK inhibitor | binds its target specifically at the membrane only after MAPK inhibitor treatment
